# Experimental data reported in patent US20080044423A1 (AstraZeneca / MedImmune, published 2008).
# T1: cynomolgus IL-17A (cynomolgus, UniProt Q16552 24-155 (human entry), limits assumed)
# T1 chain: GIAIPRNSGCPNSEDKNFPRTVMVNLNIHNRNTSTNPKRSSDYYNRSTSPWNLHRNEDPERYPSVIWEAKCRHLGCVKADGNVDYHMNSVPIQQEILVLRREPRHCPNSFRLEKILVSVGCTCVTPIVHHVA
# How the values were obtained:
# [1] = molecular target: T2, HIS FLAG tagged human IL-17A (in house HEK EBNA derived) (human, UniProt Q16552 24-155); experiment: HTRF receptor-ligand assay: inhibition of HIS FLAG IL-17A binding IL-17RA Fc; scFv, non-germlined sequence
# T2 construct: glycosylated, from HEK EBNA cells; also called HIS FLAG IL-17A; HIS FLAG human IL-17A; not shown: HIS FLAG tag
# [2] = molecular target: human IL-17A derived from the HEK-EBNA expression system (human, UniProt Q16552 24-155); experiment: cell-based or functional assay
# [3] = molecular target: T1, cynomolgus IL-17A; experiment: cell-based or functional assay
# [4] = molecular target: T2, HIS FLAG tagged human IL-17A (in house …); experiment: HTRF receptor-ligand assay: inhibition of HIS FLAG IL-17A binding IL-17RA Fc
# [5] = molecular target: T3, Antibody 2 IgG1; experiment: HTRF epitope competition vs HIS FLAG IL-17A binding the IgG
# T3 construct: human IgG1, lambda; constant regions not in the listing; also called Antibody 02
# [6] = molecular target: T4, Biosource mAb (reference anti-IL-17 mAb); experiment: as above
# T4 construct: murine (detected with anti-murine Fc)
# [7] = molecular target: human IL-17A receptor on HT1080 cells (human); experiment: cell-based or functional assay
# T3 sequence (VH, as listed by the source): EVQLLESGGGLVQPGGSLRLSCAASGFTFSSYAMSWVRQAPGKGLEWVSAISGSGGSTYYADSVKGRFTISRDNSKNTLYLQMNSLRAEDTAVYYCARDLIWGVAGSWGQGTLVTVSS
Binder,"HT1080 IL-6 release, scFv IC50 [2] [nM]","HT1080 IL-6 release, scFv IC50 [3] [nM]","HT1080 IL-6 release, IgG IC50 [2] [nM]",Fold difference in cross-reactivity (IgG) [3] [fold],"HT1080 IL-6 release, IgG IC50 [3] [nM]",IC50 [4] [nM],also measured
"Antibody 2 scFv (non-germlined) (scFv, V domains shown, scFv (one chain)) VH: not shown VL: NFMLTQPHSVSESPGKTVTISCTRSSGSLANYYVQWYQQRPGSAPTIVIFANNQRPSGVPDRFSGSIDSSSNSASLTISRLKTEDEADYYCQSYDPHSVVFGGGTKLTVL",16.2,99,–,–,–,–,IC50 [1]: 0.7 nM
"Antibody 9 IgG1 (antibody, V domains shown) VH: not shown VL: NFMLTQPHSVSESPGKTVTISCTRSSGSLANYYVQWYQQRPGSAPTIVIFANNQRPSGVPDRFSGSIDSSSNSASLTISRLKTEDEADYYCQSYSPHSVVFGGGTKLTVL",–,–,2.3,4,9.2,–,–
"Antibody 12 IgG1 (antibody, V domains shown) VH: not shown VL: NFMLTQPHSVSESPGKTVTISCTRSSGSLANYYVQWYQQRPGSAPTIVIFANNQRPSGVPDRFSGSIDSSSNSASLTISRLKTEDEADYYCQTYDPYSVVFGGGTKLTVL",–,–,2.1,2,4.2,–,–
"Antibody 10 IgG1 (antibody, V domains shown) VH: not shown VL: NFMLTQPHSVSESPGKTVTISCTRSSGSLANYYVQWYQQRPGSAPTIVIFANNQRPSGVPDRFSGSIDSSSNSASLTISRLKTEDEADYYCQSYDPHSVVFGGGTKLTVL",–,–,2.2,2,4.9,–,–
"Antibody 3 IgG1 (antibody, V domains shown) VH: not shown VL: NFMLTQPHSVSESPGKTVTISCTRSSGSLANYYVQWYQQRPGSAPTIVIFANNQRPSGVPDRFSGSIDSSSNSASLTISRLKTEDEADYYCQSYSPHSVVFGGGTKLTVL",–,–,0.8,16,13,–,–
"Antibody 5 IgG1 (antibody, V domains shown) VH: not shown VL: NFMLTQPHSVSESPGKTVTISCTRSSGSLANYYVQWYQQRPGSAPTIVIFANNQRPSGVPDRFSGSIDSSSNSASLTISRLKTEDEADYYCQSYNHKDIVFGGGTKLTVL",–,–,1.4,28,39.7,–,–
"Antibody 4 IgG1 (antibody, V domains shown) VH: not shown VL: NFMLTQPHSVSESPGKTVTISCTRSSGSLANYYVQWYQQRPGSAPTIVIFANNQRPSGVPDRFSGSIDSSSNSASLTISRLKTEDEADYYCQSYSPTSVVFGGGTKLTVL",–,–,0.9,8,7.3,–,–
"Antibody 14 scFv (non-germlined) (scFv, V domains shown, scFv (one chain)) VH: not shown VL: NFMLTQPHSVSESPGKTVTISCTRSSGSLANYYVQWYQQRPGSAPTIVIFANNQRPSGVPDRFSGSIDSSSNSASLTISRLKTEDEADYYCQSYDPTNQVFGGGTKLTVL",36.7,99.5,–,–,–,2.5,–
"Antibody 11 scFv (scFv, V domains shown, scFv (one chain)) VH: not shown VL: NFMLTQPHSVSESPGKTVTISCTRSSGSLANYYVQWYQQRPGSAPTIVIFANNQRPSGVPDRFSGSIDSSSNSASLTISRLKTEDEADYYCQSYSPHSVVFGGGTKLTVL",8.2,–,–,–,–,0.6,"HT1080 IL-6 release, scFv: % inhibition printed in the IC50 column (no IC50 reached) [3]: 20%"
"Antibody 16 scFv (scFv, V domains shown, scFv (one chain)) VH: not shown VL: NFMLTQPHSVSESPGKTVTISCTRSSGSLANYYVQWYQQRPGSAPTIVIFANNQRPSGVPDRFSGSIDSSSNSASLTISRLKTEDEADYYCQTYDPYSVVFGGGTKLTVL",13,249,–,–,–,–,–
"Antibody 13 scFv (non-germlined) (scFv, V domains shown, scFv (one chain)) VH: not shown VL: NFMLTQPHSVSESPGKTVTISCTRSSGSLANYYVQWYQQRPGSAPTIVIFANNQRPSGVPDRFSGSIDSSSNSASLTISRLKTEDEADYYCQSYDPRVVVFGGGTKLTVL",35.9,147,–,–,–,1.6,–
"Antibody 6 scFv (non-germlined) (scFv, V domains shown, scFv (one chain)) VH: not shown VL: NFMLTQPHSVSESPGKTVTISCTRSSGSLANYYVQWYQQRPGSAPTIVIFANNQRPSGVPDRFSGSIDSSSNSASLTISRLKTEDEADYYCQSYSPSSVVFGGGTKLTVL",31.2,136,–,–,–,1.7,–
"Antibody 15 scFv (non-germlined) (scFv, V domains shown, scFv (one chain)) VH: not shown VL: NFMLTQPHSVSESPGKTVTISCTRSSGSLANYYVQWYQQRPGSAPTIVIFANNQRPSGVPDRFSGSIDSSSNSASLTISRLKTEDEADYYCQSYSPTSVVFGGGTKLTVL",21.7,159,–,–,–,1.6,–
"Antibody 8 scFv (scFv, V domains shown, scFv (one chain)) VH: not shown VL: NFMLTQPHSVSESPGKTVTISCTRSSGSLANYYVQWYQQRPGSAPTIVIFANNQRPSGVPDRFSGSIDSSSNSASLTISRLKTEDEADYYCQSYNHKDIVFGGGTKLTVL",34.3,96.4,–,–,–,0.7,–
dog IL-17A (in house E. Coli derived) (ligand) GIAFPQNPGCRNTEDKNFPQHVKVNLNILNRNTNSRRPSDYYNRSTSPWNLHRNEDPERYPSVIWEAKCRHLGCVNNEGNINYHMNSVPIQQEILVLRRESQHCPHSFRLEKMLVAVGCTCVTPIVRHVA,–,–,–,–,–,–,IC50 [5]: 34 nM; IC50 [6]: 50 nM
"Mutant IL-17A (L74Q, G75R, I77V, D80E, N82K, V83L, Y85H) with C-terminal His tag (HEK/EBNA) (ligand) GITIPRNPGCPNSEDKNFPRTVMVNLNIHNRNTNTNPKRSSDYYNRSTSPWNLHRNEDPERYPSVIWEAKCRHQRCVNAEGKLDHHMNSVPIQQEILVLRREPPHCPNSFRLEKILVSVGCTCVTPIVHHVAHHHHH",–,–,–,–,–,–,"IL-6 release from HT1080 cells, EC50 [7]: 2.36 nM"
